Test results taken from paper PMC10897489.

Assays:
Assay in all cases: ITC
FXR1 215-360 = FXR1 215-360 (UniProt P51114); details: reference: unphosphorylated UBAP2L 243-270 peptide
[1] = target: GST-NSP3 1-181 (SARS-CoV-2)
[2] = target: His-NSP3 1-181 WT (SARS-CoV-2)
FXR1 215-360 (human) = target: FXR1 215-360 (human)

With “UBAP2L 243-270 (from UniProt Q14157) pT246 peptide” the KD (FXR1 215-360; sites T246) was “stronger; reference 8.5”.

With FXR1 215-360 (domain or fragment) the Kd [1] was 2.26 µM, the stoichiometry N [1] was 0.9 and the Kd [2] was 2.9 µM.

“UBAP2L 243-270 (from UniProt Q14157) pS254 peptide” was tested, and the “binding against the reference” value (FXR1 215-360; sites S254) was “lost”.

“UBAP2L 243-270 peptide (from UniProt F8W726 243-270)” gave a Kd (FXR1 215-360 (human)) of 8.53 µM and a stoichiometry N (FXR1 215-360 (human)) of 0.96.

“UBAP2L 243-270 peptide, phosphorylated on Thr246 (from UniProt F8W726 243-270)” was tested, and the Kd (FXR1 215-360 (human)) was 3.66 µM and the stoichiometry N (FXR1 215-360 (human)) was 0.9.

For “UBAP2L 243-270 (from UniProt Q14157) pS262 peptide”, the “binding against the reference” value (FXR1 215-360; sites S262) was “lost”.

“UBAP2L 243-270 peptide, phosphorylated on Ser254 (from UniProt F8W726 243-270)” gave a Kd (FXR1 215-360 (human)) of 25.5 µM and a stoichiometry N (FXR1 215-360 (human)) of 0.92.
